The values below come from publication PMC6746701, “A phyB-PIF1-SPA1 kinase regulatory complex promotes photomorphogenesis in Arabidopsis” (Nature Communications, 2019).

The data set deals with the molecule itself. In words: native gel or EMSA; 5 µg holoprotein on a native 6% PAGE gel, 4 °C, 100 V, 3 h, Coomassie; dimerisation.

B1: phyB-GFP ΔC holoprotein (Pichia pastoris purified) (domain or fragment, Arabidopsis, UniProt P14713 1-1092, looked up)
chain: MVSGVGGSGGGRGGGRGGEEEPSSSHTPNNRRGGEQAQSSGTKSLRPRSNTESMSKAIQQYTVDARLHAVFEQSGESGKSFDYSQSLKTTTYGSSVPEQQITAYLSRIQRGGYIQPFGCMIAVDESSFRIIGYSENAREMLGIMPQSVPTLEKPEILAMGTDVRSLFTSSSSILLERAFVAREITLLNPVWIHSKNTGKPFYAILHRIDVGVVIDLEPARTEDPALSIAGAVQSQKLAVRAISQLQALPGGDIKLLCDTVVESVRDLTGYDRVMVYKFHEDEHGEVVAESKRDDLEPYIGLHYPATDIPQASRFLFKQNRVRMIVDCNATPVLVVQDDRLTQSMCLVGSTLRAPHGCHSQYMANMGSIASLAMAVIINGNEDDGSNVASGRSSMRLWGLVVCHHTSSRCIPFPLRYACEFLMQAFGLQLNMELQLALQMSEKRVLRTQTLLCDMLLRDSPAGIVTQSPSIMDLVKCDGAAFLYHGKYYPLGVAPSEVQIKDVVEWLLANHADSTGLSTDSLGDAGYPGAAALGDAVCGMAVAYITKRDFLFWFRSHTAKEIKWGGAKHHPEDKDDGQRMHPRSSFQAFLEVVKSRSQPWETAEMDAIHSLQLILRDSFKESEAAMNSKVVDGVVQPCRDMAGEQGIDELGAVAREMVRLIETATVPIFAVDAGGCINGWNAKIAELTGLSVEEAMGKSLVSDLIYKENEATVNKLLSRALRGDEEKNVEVKLKTFSPELQGKAVFVVVNACSSKDYLNNIVGVCFVGQDVTSQKIVMDKFINIQGDYKAIVHSPNPLIPPIFAADENTCCLEWNMAMEKLTGWSRSEVIGKMIVGEVFGSCCMLKGPDALTKFMIVLHNAIGGQDTDKFPFPFFDRNGKFVQALLTANKRVSLEGKVIGAFCFLQIPSPELQQALAVQRRQDTECFTKAKELAYICQVIKNPLSGMRFANSLLEATDLNEDQKQLLETSVSCEKQISRIVGDMDLESIEDGSFVLKREEFFLGSVINAIVSQAMFLLRDRGLQLIRDIPEEIKSIEVFGDQIRIQQLLAEFLLSIIRYAPSQEWVEIHLSQLSKQMADGFAAIRTEFRMACP
modifications: holoprotein (chromophore bound)
notes: phytochrome B (phyB), Arabidopsis, residues 1-1092 (lacks the last 80 amino acids); source: Pichia pastoris, purified; not shown: GFP, C-terminal, kept
Turning to B1, the binding result was “binds”.

B2: phyB-GFP FL holoprotein (Pichia pastoris purified) (receptor, Arabidopsis, UniProt P14713 1-1172, looked up)
chain: MVSGVGGSGGGRGGGRGGEEEPSSSHTPNNRRGGEQAQSSGTKSLRPRSNTESMSKAIQQYTVDARLHAVFEQSGESGKSFDYSQSLKTTTYGSSVPEQQITAYLSRIQRGGYIQPFGCMIAVDESSFRIIGYSENAREMLGIMPQSVPTLEKPEILAMGTDVRSLFTSSSSILLERAFVAREITLLNPVWIHSKNTGKPFYAILHRIDVGVVIDLEPARTEDPALSIAGAVQSQKLAVRAISQLQALPGGDIKLLCDTVVESVRDLTGYDRVMVYKFHEDEHGEVVAESKRDDLEPYIGLHYPATDIPQASRFLFKQNRVRMIVDCNATPVLVVQDDRLTQSMCLVGSTLRAPHGCHSQYMANMGSIASLAMAVIINGNEDDGSNVASGRSSMRLWGLVVCHHTSSRCIPFPLRYACEFLMQAFGLQLNMELQLALQMSEKRVLRTQTLLCDMLLRDSPAGIVTQSPSIMDLVKCDGAAFLYHGKYYPLGVAPSEVQIKDVVEWLLANHADSTGLSTDSLGDAGYPGAAALGDAVCGMAVAYITKRDFLFWFRSHTAKEIKWGGAKHHPEDKDDGQRMHPRSSFQAFLEVVKSRSQPWETAEMDAIHSLQLILRDSFKESEAAMNSKVVDGVVQPCRDMAGEQGIDELGAVAREMVRLIETATVPIFAVDAGGCINGWNAKIAELTGLSVEEAMGKSLVSDLIYKENEATVNKLLSRALRGDEEKNVEVKLKTFSPELQGKAVFVVVNACSSKDYLNNIVGVCFVGQDVTSQKIVMDKFINIQGDYKAIVHSPNPLIPPIFAADENTCCLEWNMAMEKLTGWSRSEVIGKMIVGEVFGSCCMLKGPDALTKFMIVLHNAIGGQDTDKFPFPFFDRNGKFVQALLTANKRVSLEGKVIGAFCFLQIPSPELQQALAVQRRQDTECFTKAKELAYICQVIKNPLSGMRFANSLLEATDLNEDQKQLLETSVSCEKQISRIVGDMDLESIEDGSFVLKREEFFLGSVINAIVSQAMFLLRDRGLQLIRDIPEEIKSIEVFGDQIRIQQLLAEFLLSIIRYAPSQEWVEIHLSQLSKQMADGFAAIRTEFRMACPGEGLPPELVRDMFHSSRWTSPEGLGLSVCRKILKLMNGEVQYIRESERSYFLIILELPVPRKRPLSTASGSGDMMLMMPY
modifications: holoprotein (chromophore bound)
notes: phytochrome B (phyB), Arabidopsis, full length; the host named for this assay is Pichia pastoris; source: Pichia pastoris, purified; not shown: GFP, C-terminal, kept
With B2, the binding result was “binds”.
